{
  "source": "paper PMC13254535",
  "about": "“The RecBCD complex interacts directly with the DNA sliding clamp in Escherichia coli” (Nucleic Acids Research, 2026)",
  "molecules": {"B1": {"name": "RecBF489A: RecB with an F489A substitution in the QALRF motif (protein, UniProt P08394 2-1180, looked up, variant F489A)", "RecBCD enzyme subunit RecB": "SDVAETLDPLRLPLQGERLIEASAGTGKTFTIAALYLRLLLGLGGSAAFPRPLTVEELLVVTFTEAATAELRGRIRSNIHELRIACLRETTDNPLYERLLEEIDDKAQAAQWLLLAERQMDEAAVFTIHGFCQRMLNLNAFESGMLFEQQLIEDESLLRYQACADFWRRHCYPLPREIAQVVFETWKGPQALLRDINRYLQGEAPVIKAPPPDDETLASRHAQIVARIDTVKQQWRDAVGELDALIESSGIDRRKFNRSNQAKWIDKISAWAEEETNSYQLPESLEKFSQRFLEDRTKAGGETPRHPLFEAIDQLLAEPLSIRDLVITRALAEIRETVAREKRRRGELGFDDMLSRLDSALRSESGEVLAAAIRTRFPVAMIDEFQDTDPQQYRIFRRIWHHQPETALLLIGDPKQAIYAFRGADIFTYMKARSEVHAHYTLDTNWRSAPGMVNSVNKLFSQTDDAFMFREIPFIPVKSAGKNQALRAVFKGETQPAMKMWLMEGESCGVGDYQSTMAQVCAAQIRDWLQAGQRGEALLMNGDDARPVRASDISVLVRSRQEAAQVRDALTLLEIPSVYLSNRDSVFETLEAQEMLWLLQAVMTPERENTLRSALATSMMGLNALDIETLNNDEHAWDVVVEEFDGYRQIWRKRGVMPMLRALMSARNIAENLLATAGGERRLTDILHISELLQEAGTQLESEHALVRWLSQHILEPDSNASSQQMRLESDKHLVQIVTIHKSKGLEYPLVWLPFITNFRVQEQAFYHDRHSFEAVLDLNAAPESVDLAEAERLAEDLRLLYVALTRSVWHCSLGVAPLVRRRGDKKGDTDVHQSALGRLLQKGEPQDAAGLRTCIEALCDDDIAWQTAQTGDNQPWQVNDVSTAELNAKTLQRLPGDNWRVTSYSGLQQRGHGIAQDLMPRLDVDAAGVASVVEEPTLTPHQFPRGASPGTFLHSLFEDLDFTQPVDPNWVREKLELGGFESQWEPVLTEWITAVLQAPLNETGVSLSQLSARNKQVEMEFYLPISEPLIASQLDTLIRQFDPLSAGCPPLEFMQVRGMLKGFIDLVFRHEGRYYLLDYKSNWLGEDSSAYTQQAMAAAMQAHRYDLQYQLYTLALHRYLRHRIADYDYEHHFGGVIYLFLRGVDKEHPQQGIYTTRPNAGLIALMDEMFAGMTLEEA"}, "B2": {"name": "D1080A: RecB mutation that disrupts the interaction between RecB and RecA (protein, UniProt P08394 2-1180, looked up, variant D1080A)", "RecBCD enzyme subunit RecB": "B1 RecBCD enzyme subunit RecB with A488F, D1079A"}, "B3": {"name": "Pol III internal peptide (GQADMFG) (peptide)", "peptide": "Ac-GQADMFG-NH2", "notes": "also called QADMF peptide; source: synthetic peptide; bought: TAG Copenhagen"}, "B4": {"name": "RecB nuclease motif peptide (KQVEMEFY) (peptide)", "peptide": "Ac-KQVEMEFY-NH2", "notes": "also called QVEMEF peptide; RecB-derived QVEMEF peptide; source: synthetic peptide; bought: TAG Copenhagen"}, "B5": {"name": "Pol III C-terminal peptide (EQVELEFD) (peptide)", "peptide": "EQVELEFD", "notes": "free termini; also called QVELEF peptide; source: synthetic peptide; bought: TAG Copenhagen"}},
  "key": {"β-clamp": {"target": "β-clamp (Escherichia coli, UniProt P0A988)", "sequence (P0A988 whole entry)": "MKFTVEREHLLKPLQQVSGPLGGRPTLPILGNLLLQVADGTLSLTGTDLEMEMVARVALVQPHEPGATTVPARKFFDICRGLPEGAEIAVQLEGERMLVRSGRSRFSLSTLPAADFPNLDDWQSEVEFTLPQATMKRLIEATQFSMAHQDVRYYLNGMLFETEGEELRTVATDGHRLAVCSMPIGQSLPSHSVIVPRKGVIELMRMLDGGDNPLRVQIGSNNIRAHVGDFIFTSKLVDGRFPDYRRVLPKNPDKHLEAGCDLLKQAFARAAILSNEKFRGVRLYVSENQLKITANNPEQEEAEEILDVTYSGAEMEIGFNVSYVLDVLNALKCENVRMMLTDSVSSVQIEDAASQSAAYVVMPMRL", "experiment": "Saturation transfer difference (STD)-NMR of peptides with β-clamp", "type": "binding", "set-up": "made in house", "settings": "150 µM peptide, 1.5 µM β-clamp; 25°C; 20 mM sodium phosphate, 100 mM NaCl, 5 mM DTT, 0.3% DMSO, 5% D2O, pH 7.4; 600 MHz", "quoted_text": "All peptides, except Pol III C-terminal ([sequence]), were N-terminally acetylated and C-terminally amidated to remove charges in the N-and C-termini, not present in the context of the full-length proteins.\nUnlabeled and ^2H, ^13C, ^15N-labeled E. coli β-clamp was expressed and purified as previously described [54]. The β-clamp concentration was determined by absorbance at 280 nm measured on a NanoDrop ND-1000 spectrophotometer (Thermo Fisher Scientific Inc.) and using an extinction coefficient calculated by the Expasy ProtParam web tool (https://web.expasy.org/protparam/) [55]. All β-clamp concentrations are listed as the protomer concentration. The peptides were readily soluble at micromolar concentration, although at high micromolar concentrations, we cannot rule out the presence of aggregates.\nSaturation transfer difference (STD)-nuclear magnetic resonance (NMR) experiments were performed at 25°C on a Bruker Avance III HD 600 MHz NMR spectrometer equipped with a 5-mm QCI Cryoprobe. […] Samples were transferred to 5-mm NMR tubes."}, "ΔrecA ΔrecB cells [1]": {"tested_on": "ΔrecA ΔrecB cells", "experiment": "DNA degradation assay after UV (\"reckless\" DNA degradation)", "type": "cell-based, Escherichia coli", "settings": "expressed from pUT18C in ΔrecA ΔrecB; UV 50 J/m^2, 3 h; Hoechst 33258 microscopy", "protocol": "(§1) IMR13 (ΔrecA) served as a positive control for RecB-mediated DNA degradation, while IMR19 (ΔrecA ΔrecB) was used as a negative control.\n(§2) Overnight cultures were diluted to an OD600 of 0.01 into LB medium supplemented with appropriate antibiotics and incubated with shaking at 37°C until they reached an OD600 of 0.2. Each culture was split into two 1 ml aliquots. One aliquot was fixed immediately in ethanol (50% final concentration) to assess DNA content prior to UV exposure. The second aliquot was pelleted, resuspended in 1× PBS, and exposed to UV light at a dose of 50 J/m^2 (CL-1000 Ultraviolet crosslinker, UVP). […]\n(§3) Imaging was performed on a Leica DM6000 B fluorescence microscope equipped with a 100× oil immersion objective (Leica HCX Plan Apochromat 100×, 1.40 NA, PH3 CS), a Leica EL6000 metal-halide illumination system, and a Hamamatsu C9100-14 EM-CCD camera. For each sample, six fields of view were acquired, each including both phase-contrast and fluorescence channels. Fluorescence imaging was conducted using a narrow band-pass filter set optimized for CFP (Excitation: 426–446 nm; Emission: 460–500 nm; exposure time: 30 ms). All imaging parameters—including exposure time, illumination intensity, and gain—were kept constant across all strains, treatments, and replicates to ensure quantitative comparability and minimize experimental bias. […]"}, "ΔrecA ΔrecB cells [2]": {"tested_on": "ΔrecA ΔrecB cells", "experiment": "Basal DNA content without UV", "type": "cell-based, Escherichia coli", "settings": "expressed from pUT18C in ΔrecA ΔrecB; no UV; compared to wild-type RecB", "protocol": "as §1, §2, §3"}, "BTH101 ΔrecB cells": {"tested_on": "BTH101 ΔrecB cells", "experiment": "Western blot of RecB expression level", "set-up": "species or system Escherichia coli", "settings": "pUT18C constructs in BTH101 ΔrecB; Ponceau S normalized; relative to BTH101 wild type", "quoted_text": "Samples, including purified RecB, β-clamp (purified as previously explained for co-immunoprecipitation), input (10 µg; 0.5%), and pull-down eluates, and samples from BTH101 cultures used in survival assays, were mixed with 1 mM dithiothreitol (DTT) and 1× NuPAGE LDS sample buffer, then heated to 75°C for 10 min. […] SeeBlue Plus2 Pre-stained Protein Standard (Invitrogen) was used as a molecular weight marker.\nProteins were transferred onto 0.2-µm nitrocellulose membranes using the Trans-Blot Turbo Transfer System (Bio-Rad), and membranes were blocked in 5% (w/v) skim milk (Merck) in PBS-T (PBS with 0.1% Tween-20) for 45–60 min at room temperature. […] Following protein transfer, these membranes were also incubated in 0.1% (w/v) Ponceau S solution for 5 min to verify transfer efficiency and account for total protein loading. The stain was visualized, imaged for densitometric normalization, and subsequently removed by washing with deionized water prior to blocking. […]\nRelative RecB levels were quantified from the western blot images using Fiji (ImageJ) [58]. […] The lane profiles were plotted, and the measured signal from each lane was first normalized to the relevant Ponceau stain signal from the same lane and then to the wild-type strain."}, "recB strains": {"tested_on": "recB strains", "settings": "RecB mutation D1080A; ref [82]; cited from earlier work"}, "RecA": {"tested_on": "RecA", "settings": "RecB mutation D1080A; ref [82]; cited from earlier work"}, "[3]": {"target": "T1, Escherichia coli β-clamp (DnaN), recombinantly expressed and purified (Escherichia coli, UniProt P0A988 1-366)", "T1 construct": "β-clamp (dnaN), E. coli; homodimer; Unlabeled in STD-NMR and ITC; 2H,13C,15N-labeled in the TROSY-HSQC experiments; also called DNA sliding clamp; source: recombinantly expressed and purified as previously described [54]", "T1 sequence (P0A988 whole entry)": "as above", "experiment": "STD-NMR; 150 µM peptide with 1.5 µM unlabeled β-clamp, 20 mM sodium phosphate, 100 mM NaCl, 5 mM DTT, 0.3% DMSO, pH 7.4, 25°C", "settings": "both partners purified"}, "[4]": {"target": "T1, Escherichia coli β-clamp (DnaN), …", "experiment": "ITC; 278-294 µM β-clamp in the syringe titrated into 70.6 µM peptide in the cell; 20 mM sodium phosphate, 100 mM NaCl, 1 mM TCEP, 0.02% DMSO, pH 7.4, 25°C; one-site model; three replicates", "settings": "both partners purified"}},
  "note": "Positions count from the first letter of the chain named. Names and notes keep the numbering of the source.",
  "data": [
    {"molecule": "EQVELEFD [DNA polymerase III C-terminal CBM peptide, positive control, reference compound]", "values": [
      {"measurement": "STD-NMR binding", "setting": "β-clamp", "value": "clear binding"}
    ]},
    {"molecule": "GKNQALRAV [phenylalanine-to-alanine variant of the RecB helicase motif peptide]", "values": [
      {"measurement": "STD-NMR binding", "setting": "β-clamp", "value": "did not exhibit detectable STD signals under the conditions tested"}
    ]},
    {"molecule": "GKNQALRFV [RecB helicase motif peptide (residues 485–489) with one C-terminal and three N-terminal flanking residues]", "values": [
      {"measurement": "STD-NMR binding", "setting": "β-clamp", "value": "did not exhibit detectable STD signals under the conditions tested"}
    ]},
    {"molecule": "GQADMFG [DNA polymerase III internal CBM peptide, positive control, reference compound]", "values": [
      {"measurement": "STD-NMR binding", "setting": "β-clamp", "value": "clear binding"}
    ]},
    {"molecule": "KQVEMEAY [QVEMEF variant in which the terminal phenylalanine was replaced with alanine]", "values": [
      {"measurement": "STD-NMR binding", "setting": "β-clamp", "value": "no detectable binding"}
    ]},
    {"molecule": "B1", "values": [
      {"measurement": "reckless DNA degradation after UV", "setting": "ΔrecA ΔrecB cells [1]", "value": "did not"},
      {"measurement": "basal DNA content", "setting": "ΔrecA ΔrecB cells [2]", "value": "No significant difference in DNA content"},
      {"measurement": "RecB expression level relative to endogenous RecB", "setting": "BTH101 ΔrecB cells", "value": "~2", "unit": "times"}
    ]},
    {"molecule": "B2", "values": [
      {"measurement": "survival rates after UV exposure", "setting": "recB strains", "value": "comparable to those observed in strains with a complete recB deletion"},
      {"measurement": "interaction between RecB and RecA", "setting": "RecA", "value": "disrupts the interaction between RecB and RecA"}
    ]},
    {"molecule": "B3", "values": [
      {"measurement": "binding result", "setting": "[3]", "value": "binds"}
    ]},
    {"molecule": "B4", "values": [
      {"measurement": "Kd", "setting": "[4]", "value": 2000, "unit": "nM"}
    ]},
    {"molecule": "B5", "values": [
      {"measurement": "binding result", "setting": "[3]", "value": "binds"}
    ]}
  ]
}
